# Source: the RNAGym collection of RNA variant scans (doi:10.1073/pnas.2313332121)
# B1: TPR t1 (parent)
# chain: GACCAAUCUGCCCUCAGAGCUCGAGAACAUCUUCGGAUGCAGAGGAGGCAGGCUUCGGUGGCGCGAUAGCGCCAACGUCCUCAACCUCCAAUGCAUCCCACCACAUGAUGAUGCCUGAAGAGCCUUGGUUUUUUG
# Variants of: B1
# Assay: polymerase ribozyme fitness, log enrichment relative to wild type (log ratio); higher = more active; in vitro selection for triplet polymerase activity
# Summary of the method: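 Frozen incubation at −7 °C formed the core of a single, triplicate in vitro selection round applied to PCR-built, transcribed mutant libraries of each subunit of a heterodimeric triplet polymerase ribozyme. Extended constructs were gel-excised, captured with streptavidin beads and amplified by RT-PCR, and input and output libraries were Illumina-sequenced with a filter of ≥10 input reads and ≥1 read per output. Fitness is the logarithm of genotype enrichment relative to wild-type enrichment, with inverse-variance-weighted replicate averaging, and the logarithm is base 2.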
row,Variant,polymerase ribozyme fitness (log ratio)
1,GACCAAUCUGCCCUCAGAGCUCGAGAACAUCUUCGGAUGCAGAGGAGGCAGGCAUCGGUGGCGCGAUAGCGCCAACGUCCUCAACCUCCAAUGCAUCCCACCACAUGAUGAUUGCUGAAGCGCCUUGGUUUUUUG,-2.43
2,GACCAAUCUGCCCUCAGAGCUCGAGAACAUCUUCGGAUGCAGAGGAGGCAGGCAUCGGUGGCGCGAUAGCGCCAACGUCCUCAACCUCCAAUGCAUCCCACCACAUGAUGAUGCCUGAAGAGCAUUGGUUUUUUG,-0.2
3,GACCAAUCUGCCCUCAGAGCUCGAGAACAUCUUCGGAUGCAGAGGAGGCAGGCAUCGGUGGCGCGAUAGCGCCAACGUCCUUAACCUCCAAUGCAUCCCACCACAUGAUGAUACCUGAAGAGCCUUGGUUUUUUG,-1.2
4,GACCAAUCUGCCCUCAGAGCUCGAGAACAUCUUCGGAUGCAGAGGAGGCAGGCAUCGGGGGCGCGAUAGCGCCAACGUCCUCAACCUCCAAUGCAUCCCACCACAUGAUGAUGCCUGAAGAGCCUUGGUUUUUUG,-0.218
5,GACCAAUCUGCCCUCAGAGCUCGAGAACAUCUUCGGAUGCAGAGGAGGCAGGCAUCGGUGGCGCGAUAGCGCCAACGUCCUCAACCACCAAUGCAUCCCACCACAUGAUGAUGCCUUAAGAGCCUUGGUUUUUUG,-2.44
6,GACCAAUCUGCCCUCAGAGCUCGAGAACAUCUUCGGAUGCAGAGGAGGCAGGCAUCGGUGGCGCGAUAGCGCCAACGUCCUCAACCUCCAAUGCAUCCCACCACAUGUUGAUGCCUGAAGAGCCUUGGUUUUUUG,-4.71
7,GACCAAUCUGCCCUCAGAGCUCGAGAACAUCUUCGGAUGCAGAGGAGGCAGGCAUCGGUGGCGCGAUAGCGCCAACGUCCUCAACCUCCAAUGCAUCCCACCACAUGAUGAUGCGUGAAGAGCCUUGGUUUUUUG,-2.09
8,GACCAAUCUGCCCUCAGAGCUCGAGAACAUCUUCGGAUGCAGAGGAGGCAGGCAGCGGUGACGCGAUAGCGCCAACGUCUUCAACCUCCAAUGCAUCCCACCACAUGAUGAUGCCUGAAGAGCCUUGGUUUUUUG,-0.516
9,GACCAAUCUGCCCUCAGAGCUCGAGAACAUCUUCGGAUGCAGAGGAGGCAGGCAUCGGUGGCGCGAUAGCGCCAACGUCCGCAACCUCCAAUGCAUCCCACCACAUGAUGAUGCCUGAAAAGCCUUGGUUUUUUG,-3.57
10,GACCAAUCUGCCCUCAGAGCUCGAGAACAUCUUCGGAUGCAGAGGAGGCAGGUUUCGGUGGCGCGAUAGCGCCAACGUCCUCAACCUCCAAUGCAUCCCACCACAUGAUGAUGCCUGAAGAGCCUUGGUUUUAUG,-0.343
11,GACCAAUCUGCCCUCAGAGCUCGAGAACAUCUUCGGAUGCAGAGGAGGCAGGCAUCGGUGGCGCGAUAGCGCCAACGUCCUCAACCUCCAAUGCAUCGCACCACAUGAUGACGCCUGAAGAGCCUUGGUUUUUUG,-3.86
12,GACCAAUCUGCCCUCAGAGCUCGAGAACAUCUUCGGAUGCAGAGGAGGCAGGCAUCGGUGGCGCGAUAGCGCCAACGUCCUCAACCUCCAAUGCAUCCCACCACAAGAUGAUGCCUGAAGAGCAUUGGCUUUUUG,0.971
13,GACCAAUCUGCCCUCAGAGCUCGAGAACAUCUUCGGAUGCAGAGGAGGCAGGCAUCGGUCGCGCGAUAGCGCCAACGUCCUCAACCUCCAAUGCAUCCCACCACAUGAUGAUGCCUCAAGAGCCUUGGUUUUUUG,-3.99
14,GACCAAUCUGCCCUCAGAGCUCGAGAACAUCUUCGGAUGCAGAGGAGGCAGGCAUCGGUGGCGCGAUAGGGCCAACGUCCUCAACCUCCAAUGCAUCCCACCACAUGAUGAUGCCUGAAGAGCCUUGGUUUUUUG,-2.37
15,GACCAAUCUGCCCUCAGAGCUCGAGAACAUCUUCGGAUGCAGAGGAGGCAGGCAUCGGUGGCGCGAUAGCGCCAACGUCCUCAACCUCCAACGCAUCCCACCACAUGAUGAUGCCUGAAGAGCCUUGAUUUUUUG,-3.16
16,GACCAAUCUGCCCUCAGAGCUCGAGAACAUCUUCGGAUGCAGAGGAGGCAGGCAUUGGUGGCGCGAUAGCGCCAACGUCCUCAACCUCCAAUGCAUCCCACCACAUGAUGAUGCCUGAAGAGCCUUGGUUUUAUG,-0.112
17,GACCAAUCUGCCCUCAGAGCUCGAGAACAUCUUCGGAUGCAGAGGAGGCAGGCAUCGGUGGCGCGAUAGGGCCAACGUCCUCAACCUUCAAUGCAUCCCACCACAUGAUGAUGCCUGAAGAGCCUUGGUUUUUUG,-3.24
18,GACCAAUCUGCCCUCAGAGCUCGAGAACAUCUUCGGAUGCAGAGGAGGCAGGCAUCGGUGGUGCGAUAGCGGCAACGUCCUCAACCUCCAAUGCAUCCCACCACAUGAUGAUGCCUGAAGAGCCUUGGUUUUUUG,-1.24
19,GACCAAUCUGCCCUCAGAGCUCGAGAACAUCUUCGGAUGCAGAGGAGGCAGGCAUUGGUGGCGCGAUAGCGCCAACGUCCUCAACCUCCAAUACAUCCCACCACAUGAUGAUGCCUGAAGAGCCUUGGUUUUUUG,0.304
20,GACCAAUCUGCCCUCAGAGCUCGAGAACAUCUUCGGAUGCAGAGGAGGCAGGCAUCGGUGGCGCGAUAGCGCCAACGUCCUCAACCUCCAAUGAAUCCCACCACAUGAUGAUUCCUGAAGAGCCUUGGUUUUUUG,-3.97
21,GACCAAUCUGCCCUCAGAGCUCGAGAACAUCUUCGGAUGCAGAGGAGGCAGGCAUCGGUGGCGUGAUAGCGCCAACGUCCUCAACCUCCAAUGCAUCCCACCACUUGAUGAUGCCUGAAGAGCCUUGGUUUUUUG,-2.69
